# Results: patent US20020165123A1 (published 2002)
# Bridges are numbered along the chain shown (N, C = ends). Where no end group is shown, it is not given here.
# B1: SDF-1(1-8)2-lysine bridge dimer (peptide)
# peptide: KPVSLSYRK-NH2
# modifications: also: dimer: two chains' Arg8 amide-linked to one bridging lysine (alpha and epsilon amino groups)
# notes: Two SDF-1(1-8) chains joined through one lysine amide; also called CTCE9904
# B2: SDF-1(1-17) (peptide)
# peptide: KPVSLSYRCPCRFFESH
# notes: Linear peptide, free acid; also called CTCE9902
# B3: SDF-1(1-9)2-C9/C9-cysteine dimer (peptide)
# peptide: KPVSLSYRC
# modifications: also: homodimer via disulphide between Cys9 of the two chains
# notes: Homodimer of SDF-1(1-9), with free acid C-termini; also called CTCE9901
# Molecular target: T1, CXC chemokine receptor 4 (CXCR4) (UniProt P61073 1-352, limits assumed)
# T1 construct: whole, on cells; Endogenous receptor on CEM and THP-1 cells; also called SDF-1 receptor; fusin
# T1 sequence (P61073 whole entry): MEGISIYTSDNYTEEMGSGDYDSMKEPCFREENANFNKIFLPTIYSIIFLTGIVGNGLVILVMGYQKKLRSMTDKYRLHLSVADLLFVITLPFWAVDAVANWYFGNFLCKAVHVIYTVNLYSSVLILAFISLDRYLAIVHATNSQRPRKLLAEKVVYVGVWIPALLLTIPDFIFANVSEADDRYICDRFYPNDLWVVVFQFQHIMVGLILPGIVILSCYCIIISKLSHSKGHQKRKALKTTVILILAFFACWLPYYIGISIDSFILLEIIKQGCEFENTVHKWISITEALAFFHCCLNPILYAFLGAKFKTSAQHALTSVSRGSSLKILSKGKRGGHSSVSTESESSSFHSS
# Assay: competition against 4 nM 125I-SDF-1 on CEM cells (FIG. 2B)
# Protocol: SDF-1 and the indicated analogs (competing ligands, described in Examples) were added at the concentrations illustrated in the presence of 4 nM ¹²⁵I-SDF-1. CEM cells were assessed for ¹²⁵I-SDF-1 binding following 2 hr of incubation. The results are expressed as percentages of the maximal specific binding that was determined without competing ligand, and are the mean of three independent experiments.
# A competitive dose response for binding to the SDF-1 receptor by native SDF-1 and the CXCR4 agonists against ¹²⁵I-SDF-1 is shown in FIGS. 2A and 2B respectively. A concentration-dependent inhibition of ¹²⁵I-SDF-1 is illustrated in FIG. 2A, indicating the affinity of SDF-1 for the receptor. […] SDF-1 and the indicated analogs (competing ligands) were added at the concentrations illustrated in the presence of 4 nM ¹²⁵I-SDF-1. CEM cells were assessed for ¹²⁵I-SDF-1 binding following 2 hr of incubation. The results are expressed as percentages of the maximal specific binding that was determined without competing ligand, and are the mean of three independent experiments. The inhibition of ¹²⁵I-SDF-1 by SDF-1 and the SDF-1 analogs is indicative of CXCR4 receptor binding. The compounds illustrated in the figure are as follows: SDF-1(1-14)-(G)₄-SDF-1(55-67)-K20/E24-cyclic amide (CTCE0021), SDF-1(1-14)-(G)₄-SDF-1(55-67)-E24/K28-cyclic amide (CTCE0022), SDF-1(1-9)₂-C9/C9-cysteine dimer (CTCE9901), SDF-1(1-17) (CTCE9902), SDF-1(1-8)₂-lysine bridge dimer (CTCE9904) and SDF-1(1-14)-(G)₄-SDF-1(55-67) amide (CTCE0017).
row,binding result,Binder
1,binds,B1
2,binds,B2
3,binds,B3

# Molecular target: T1, CXC chemokine receptor 4 (CXCR4)
# Assay: cell-based or functional assay
row,"EC50 of [Ca2+]i mobilization, fura-2,AM loaded THP-1 cells [nM]",Binder
1,188,KPVSLSYRCPCRFFGGGGLKWIQEYLEKALN-OH (cysteine pairing not given here) [SDF-1(1-14)-(G)4-SDF-1(55-67) acid]
2,148,KPVSLSYRCPCRFFGGGGLKWIQEYLEKALN-NH2 (lactam 20-24; cysteine pairing not given here) [SDF-1(1-14)-(G)4-SDF-1(55-67)-K20/E24-cyclic amide]
3,106,KPVSLSYRCPCRFFGGGGLKWIQEYLEKALN-NH2 (lactam 24-28; cysteine pairing not given here) [SDF-1(1-14)-(G)4-SDF-1(55-67)-E24/K28-cyclic amide]
